Here are results for eight molecules from patent US20130149306A1, “Antagonists of Sema3E/PlexinD1 interaction as anti-cancer agents” (NETRIS PHARMA, priority 2010, published 2013).

For orientation: IC50 means the concentration needed to halve the response being measured. Read a high IC50 as lower potency.

The subject of data set [1] is HEK 293T cells transfected with hPlexinD1. The experiment in a line: PlexinD1-induced cell death of transfected HEK 293T cells. The class given is cell-based, human. Particulars: for Effect of caspase inhibitor on the death effect of PlexinD1: 10 μM, trypan blue exclusion, cleaved Caspase-3 positive cells; for Effect of co-transfected semaphorin vector on PlexinD1-induced cell death: co-transfection with hPlexinD1. As for the experimental part:
FIGS. 28-29: HEK 293T cells transfected with an expression control vector or hPlexinD1 were cultured in absence or presence of different caspase inhibitors at 10 μM (caspase-3 (z-DEVD-fmk) and capspase-9 (z-LEHD-fmk), caspase-8 (z-IETD-fmk)). Cell death was measured by trypan blue exclusion-assay (28) or by quantification of the percentage of cleaved Caspase-3 positive cells (29). Activation of caspase-9 and caspase-3 is required for PlexinD1-mediated cell death.
FIG. 30: HEK 293T cells transfected with expression vectors for hPlexinD1, hPlexinD1-RA or a control vector were cultured in the absence or presence of different concentration of Sema3E (10 to 100 ng/ml).
FIG. 31: HEK 293T cells transfected with an expression vector for hPlexinD1 together with expression vector coding for Sema3E, Sema3C or a soluble form of Sema4A.
(§1) Cell death/viability was determined by trypan blue dye exclusion, MTT cell viability assay, calcein assay, and anti-active caspase-3 immunoreactivity. In some experiments, cells were seeded in multiple 24-well plates (5×10^4 cells/well) for 24 h then transfected with different vectors using Lipofectamine Plus (Invitrogen): The different analysis occurred after 48 h (HEK-293T cells) or 72 h (4T1 cells) of serum starvation. In some experiments, cells were cultured in the presence of 10 μM caspase inhibitors: caspase-3 inhibitor II (Z-DEVD-FMK, 264155, VWR), caspase-8 inhibitor II (Z-IETD-FMK, 218759, VWR), and caspase-9 inhibitor II ([…], 218776, VWR).
(§2) For trypan blue exclusion experiments, total cells (adherent and floating) were collected by mechanical detachment and medium collection. Cells were pelleted by slow centrifugation and resuspended in serum-free medium. Trypan blue (0.4%) was added in a ratio of 1:1 to the cell suspension, and the percentage of cell death was measured in a hemacytometer by counting, in a blinded fashion and within a given volume, the number of blue (dead) cells and comparing this number to the total number of cells in this same volume.
(§3) For caspase staining, after immunostaining with anti-active caspase-3 antibody, the percentage of labelled cells was estimated by comparing the number of active caspase-3-stained cells with the total number of cells present on a given surface.

For the next data set, the system named is 4T1 cells. The experiment in a line: Cell death/viability in cultures of 4T1 cells. Format: cell-based, mouse. The procedure:
as §1, §2, §3
For assessing cell viability using calcein, cells were plated in OptiMEM medium in 96-well black plates (Greiner Bio-one, Courtaboeuf, France). After 3-6 days in culture, live cells were stained with 0.5 μg/ml green calcein-acetoxymethyl ester (Molecular Probes, Eugene, Oreg.) for 40 minutes at 37° C., and counted using a flash cytometer (Trophos, Marseille, France).
We next used an in vitro assay to evaluate whether SD1 is directly capable of triggering death of tumor cells. […] Similarly, 4T1-SD1 cells, which proliferate at the same rate as 4T1-mock cells during the first 24-48 h in culture, show increased death 72 h after plating, possibly as a result of SD1 accumulation in the culture medium (FIG. 14). […] Thus, SD1 triggers cancer cell death in a PlexinD1 dependent manner.

For data set [2], the target named is T1, in vitro translated intracellular domain of PlexinD1 (hPlexinD1 aa 1293 to 1925) (UniProt Q9Y4D7).
T1 sequence: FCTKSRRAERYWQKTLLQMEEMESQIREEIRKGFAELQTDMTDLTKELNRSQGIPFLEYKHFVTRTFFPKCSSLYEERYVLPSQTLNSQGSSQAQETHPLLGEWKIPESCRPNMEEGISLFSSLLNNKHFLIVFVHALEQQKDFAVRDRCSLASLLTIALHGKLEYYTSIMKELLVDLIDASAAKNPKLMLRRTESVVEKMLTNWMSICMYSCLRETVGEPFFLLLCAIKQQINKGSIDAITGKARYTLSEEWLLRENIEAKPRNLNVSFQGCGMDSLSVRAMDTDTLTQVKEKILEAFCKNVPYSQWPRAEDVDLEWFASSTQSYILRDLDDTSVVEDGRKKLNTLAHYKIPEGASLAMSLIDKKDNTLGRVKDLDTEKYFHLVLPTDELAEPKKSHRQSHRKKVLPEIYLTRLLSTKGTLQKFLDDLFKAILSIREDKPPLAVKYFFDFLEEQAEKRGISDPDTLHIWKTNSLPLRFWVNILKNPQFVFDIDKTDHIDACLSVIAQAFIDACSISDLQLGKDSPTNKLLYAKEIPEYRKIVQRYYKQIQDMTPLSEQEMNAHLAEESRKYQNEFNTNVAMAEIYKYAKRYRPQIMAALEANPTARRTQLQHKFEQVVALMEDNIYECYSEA

Data set [3] deals with PlexinD1-IC D1471N/D1624N (UniProt Q9Y4D7).
The target of data set [4] is T2, Sema3E (as printed in the displacement assay and as 'exogenous Sema3E' or Sema3E expression vector in the … (Mus musculus (Mouse), UniProt P70275 26-775)).
T2 construct: The methods describe production of mouse AP-Sema3E, which may be the one used in the displacement assay; also called Sema3E ligand; not shown: Alkaline phosphatase (AP) fusion partner, and a His tag if the AP-Sema3E-his construct was used
T2 sequence: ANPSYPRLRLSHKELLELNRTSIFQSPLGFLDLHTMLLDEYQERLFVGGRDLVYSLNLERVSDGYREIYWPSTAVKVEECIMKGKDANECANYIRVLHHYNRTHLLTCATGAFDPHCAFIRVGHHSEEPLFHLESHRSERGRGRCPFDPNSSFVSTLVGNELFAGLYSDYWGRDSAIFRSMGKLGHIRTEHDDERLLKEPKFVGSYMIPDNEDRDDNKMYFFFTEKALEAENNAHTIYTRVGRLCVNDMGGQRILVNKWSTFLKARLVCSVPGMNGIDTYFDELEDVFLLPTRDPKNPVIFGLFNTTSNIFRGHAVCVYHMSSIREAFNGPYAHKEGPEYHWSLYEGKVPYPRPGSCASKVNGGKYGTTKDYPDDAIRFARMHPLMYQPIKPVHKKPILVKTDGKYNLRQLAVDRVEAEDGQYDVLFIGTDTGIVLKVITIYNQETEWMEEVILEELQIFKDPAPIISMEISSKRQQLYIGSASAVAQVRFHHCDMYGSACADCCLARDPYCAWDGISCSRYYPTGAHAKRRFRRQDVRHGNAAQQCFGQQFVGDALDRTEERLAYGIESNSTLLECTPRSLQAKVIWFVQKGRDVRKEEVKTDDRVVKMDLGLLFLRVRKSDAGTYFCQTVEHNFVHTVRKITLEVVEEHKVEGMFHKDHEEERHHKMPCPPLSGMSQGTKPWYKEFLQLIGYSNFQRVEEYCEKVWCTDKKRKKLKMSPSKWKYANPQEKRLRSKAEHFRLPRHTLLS
The experiment in a line: displacement of Sema3E binding to PlexinD1-expressing HEK293T cells by SD1 in conditioned medium (1-12 nM).

For the molecule z-IETD-fmk [reference compound], the “Effect of caspase inhibitor on the death effect of PlexinD1” value in data set [1] was “not”. Turning to “shRNA1: small hairpin RNA targeting mouse Sema3E, SEQ ID NO: 26 (CCGGGCTGCTGAAAGTAATCACAATCTCGAGATTGTGATTACTTTCAGCAGCTTTTTG) [reference compound]”, the “Death of 4T1 cells on knockdown of Sema3E” value in the data set on 4T1 cells (transfection with shRNA to mouse Sema3E) is “induced death”. As to z-LEHD-fmk [reference compound], the “Effect of caspase inhibitor on the death effect of PlexinD1” value in data set [1] is “blocked”. Same read-out and setting: with z-DEVD-fmk [reference compound] the entry was “blocked”. For the molecule purified active caspase-3, the “in vitro cleavage by active caspase-3 (autoradiography)” value in data set [2] is “the intracellular domain of PlexinD1 is cleaved by caspase-3, resulting in five protein products that migrate at apparent molecular weight of 16, 24, 30, 37 and 50 kDa”; in data set [3] it was “Mutation of both aspartic acid residues to asparagine (N) within the intracellular domain of PlexinD1 completely suppressed caspase-3 cleavage”.

B1: Sema3E: secreted Semaphorin 3E, ligand of PlexinD1; added as exogenous protein or co-transfected vector (protein)
chain: ANPSYPRLRLSHKELLELNRTSIFQSPLGFLDLHTMLLDEYQERLFVGGRDLVYSLNLERVSDGYREIYWPSTAVKVEECIMKGKDANECANYIRVLHHYNRTHLLTCATGAFDPHCAFIRVGHHSEEPLFHLESHRSERGRGRCPFDPNSSFVSTLVGNELFAGLYSDYWGRDSAIFRSMGKLGHIRTEHDDERLLKEPKFVGSYMIPDNEDRDDNKMYFFFTEKALEAENNAHTIYTRVGRLCVNDMGGQRILVNKWSTFLKARLVCSVPGMNGIDTYFDELEDVFLLPTRDPKNPVIFGLFNTTSNIFRGHAVCVYHMSSIREAFNGPYAHKEGPEYHWSLYEGKVPYPRPGSCASKVNGGKYGTTKDYPDDAIRFARMHPLMYQPIKPVHKKPILVKTDGKYNLRQLAVDRVEAEDGQYDVLFIGTDTGIVLKVITIYNQETEWMEEVILEELQIFKDPAPIISMEISSKRQQLYIGSASAVAQVRFHHCDMYGSACADCCLARDPYCAWDGISCSRYYPTGAHAKRRFRRQDVRHGNAAQQCFGQQFVGDALDRTEERLAYGIESNSTLLECTPRSLQAKVIWFVQKGRDVRKEEVKTDDRVVKMDLGLLFLRVRKSDAGTYFCQTVEHNFVHTVRKITLEVVEEHKVEGMFHKDHEEERHHKMPCPPLSGMSQGTKPWYKEFLQLIGYSNFQRVEEYCEKVWCTDKKRKKLKMSPSKWKYANPQEKRLRSKAEHFRLPRHTLLS
Take B1: the “Effect of exogenous Sema3E on SD1-induced death” value in the data set with 4T1 cells (exogenous Sema3E 100 ng/ml) was “sufficient to rescue cells from death”. Moreover, in the data set with 4T1 cells (exogenous Sema3E 100 ng/ml, shRNA1), the “Effect of exogenous Sema3E on death induced by Sema3E knockdown” value is given as “reversed”. Moreover, the “Effect of exogenous ligand on PlexinD1-triggered cell death” value in data set [1] (Sema3E 10 to 100 ng/ml) is listed as “inhibited in a dose dependent manner”. Moreover, the “Effect of co-transfected semaphorin vector on PlexinD1-induced cell death” value in data set [1] is “saved from cell death”.

B2: Sema3C: class 3 semaphorin which does not directly bind to PlexinD1; expressed from vector (protein, UniProt Q99985 21-751, looked up)
Semaphorin-3C: GSSQPQARVYLTFDELRETKTSEYFSLSHHPLDYRILLMDEDQDRIYVGSKDHILSLNINNISQEALSVFWPASTIKVEECKMAGKDPTHGCGNFVRVIQTFNRTHLYVCGSGAFSPVCTYLNRGRRSEDQVFMIDSKCESGKGRCSFNPNVNTVSVMINEELFSGMYIDFMGTDAAIFRSLTKRNAVRTDQHNSKWLSEPMFVDAHVIPDGTDPNDAKVYFFFKEKLTDNNRSTKQIHSMIARICPNDTGGLRSLVNKWTTFLKARLVCSVTDEDGPETHFDELEDVFLLETDNPRTTLVYGIFTTSSSVFKGSAVCVYHLSDIQTVFNGPFAHKEGPNHQLISYQGRIPYPRPGTCPGGAFTPNMRTTKEFPDDVVTFIRNHPLMYNSIYPIHKRPLIVRIGTDYKYTKIAVDRVNAADGRYHVLFLGTDRGTVQKVVVLPTNNSVSGELILEELEVFKNHAPITTMKISSKKQQLYVSSNEGVSQVSLHRCHIYGTACADCCLARDPYCAWDGHSCSRFYPTGKRRSRRQDVRHGNPLTQCRGFNLKAYRNAAEIVQYGVKNNTTFLECAPKSPQASIKWLLQKDKDRRKEVKLNERIIATSQGLLIRSVQGSDQGLYHCIATENSFKQTIAKINFKVLDSEMVAVVTDKWSPWTWASSVRALPFHPKDIMGAFSHSEMQMINQYCKDTRQQHQQGDESQKMRGDYGKLKALINSRKSRNRRNQLPES
On to B2, for which, in data set [1], the “Effect of co-transfected semaphorin vector on PlexinD1-induced cell death” value is “no change”.

B3: SD1 (sema domain of mouse PlexinD1, aa 61 to 531, fused in frame with six myc epitope tags) (receptor, UniProt Q3UH93 61-531, looked up, not shown: small tags and cut ends)
chain: TNNFALDGTAGTVYLAAVNRLYQLSSANLSLEAEATVGPVPDSPLCHAPQLPQASCEHPRRLTDNYNKILQLDPGQGLVVACGSIYQGLCQLRRRGNISALAVSFPPAAPTAEPVTVFPSMLNVAANHPNASTVGLVLPPTSGTGGSRLLVGATYTGFGSAFFPRNRSLEDHRFENTPEIAIRSLDARGDLAKLFTFDLNPSDDNILKIKQGAKEQHKLGFVRAFLHPAVPPHSAQPYAYLALNSEARAGDKDSQARSLLARICLPRGAGGDAKKLTESYIQLGLQCAGGAGRGDLYSRLVSVFPAREQFFAVFERPQGAPGARNAPAALCAFRFDDVQAAIRAARTACFVEPAPDVVAVLDSVVQGTGPACESKRNIQLQPEQLDCGAAHLQHPLTILQPLRASPVFRAPGLTAVAVASANNYTAVFLGTATGRLLKISLNESMQVVSRRVLTVAYGEPVHHVMQFDPMD
notes: range 61-531; The construct starts with the Ig k-chain secretion signal peptide, left out here as it is a secretion signal; also called SD1 polypeptide; myc-tagged SD1
In turn, B3 had an IC50 in data set [4] of 5.05 nM.
